Results taken from patent publication US20240124885A1 (MENDEL BIOTECHNOLOGY, published 2024).

How the values were obtained:
[1] = target: Flag::GmBBX62 (Glycine max); experiment: reciprocal Luminex co-IP from soybean protoplast extract, anti-FLAG capture, anti-GFP detection
[2] = target: Flag::GmBBX62 (Glycine max); experiment: Luminex co-IP from soybean protoplast extract, anti-GFP capture, anti-FLAG detection
AtBBX32::GFP [3] = target: T1, AtBBX32::GFP (Arabidopsis thaliana, UniProt Q9LJB7 1-225); experiment: Luminex co-IP from soybean cotyledon protoplast extract, both directions
T1 construct: Fusion protein transiently expressed in soybean cotyledon protoplasts; also called AtBBX32 fused to GFP; not shown: GFP fusion partner
T1 sequence: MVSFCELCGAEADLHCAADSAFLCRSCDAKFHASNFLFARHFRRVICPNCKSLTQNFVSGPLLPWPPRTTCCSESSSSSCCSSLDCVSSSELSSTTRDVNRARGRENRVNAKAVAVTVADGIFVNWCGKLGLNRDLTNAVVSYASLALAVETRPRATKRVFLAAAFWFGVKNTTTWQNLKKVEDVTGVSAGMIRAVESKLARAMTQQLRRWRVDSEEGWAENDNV
Description: (§1) Capture antibodies for GFP (MBL International, D153-3),Myc (Bethyl Laboratories cat #A190-104A)and FLAG (Bethyl Laboratories, A190-101A) were covalently coupled to carboxylated fluorescent microspheres (Luminex) according to the manufacturer's protocol Luminex two-step Carbodimide coupling protocol was modified as follows: 3.5×10⁶ beads were conjugated to […] of antibody and resuspended in coupling buffer containing 100 mM MES pH 6. Biotinylated antibodies for GFP (Abcam, ab6658), Myc (Bethyl Laboratories cat #A190-104B)and FLAG (Bethyl laboratories, A190-101B) were used for detection of interacting proteins in the miniaturized sandwich immunoassay. NeutrAvidin R-phycoerythrin was used as the reporter assay reagent (Invitrogen, A2660).
To assess the potential interaction between AtBBX32 and GmBBX39, two experiments were conducted consisting of a total of three repetitions (exp. 1, n=1; exp. 2, n=2). BBX32::GFP was co-expressed with FLAG::GmBBX39 in soybean cotyledon protoplasts. Expression analyses on one replicate of each treatment using either Luminex (BBX32::GFP) or Western blot (FLAG::BBX39) detection confirmed that each protein was expressed at detectable levels (data not shown). When co-expressed in protoplasts, BBX32::GFP and FLAG::BBX39 co-precipitated with either anti-GFP or anti-FLAG beads (FIG. 17).

AtBBX32::GFP [4] = target: T1, AtBBX32::GFP; experiment: Luminex co-IP, anti-GFP and anti-Myc capture
Description: Luminex co-IP assays were performed on extracts from soybean cotyledon protoplasts co-expressing AtBBX32 fused to GFP and GmBBX39 fused to the Myc epitope. A: IP with anti-GFP, detection with anti-Myc. B: IP with anti-Myc, detection with anti-GFP. MFI stands for Median Fluorescence Intensity. * denotes p<0.001.
as §1

B1: AtBBX32::GFP (protein, not shown: large carriers)
chain: T1 sequence
fold increase of fluorescence intensity over controls [1]: 5 fold | fold increase of median fluorescence intensity (MFI) over controls [2]: 6 fold

B2: FLAG::GmBBX39 (other)
chain: MKIQCDVCNKHEASVFCTADEAALCDGCDHRVHHANKLASKHQRFSLLRPSPKQHPLCDICQERRAFTFCQQDRAILCKECDVSIHSANEHTLKHDRFLLTGVKLSASAMLRSSETTSDSNSNPSLLNFSHQTTLLPPSSTTTTTTSNNNNNKVAVEGTGSTSASSISEYLIETLPGWQVEDFLDSYSVPFGFCKNDEVLPRFDGEMEGHLSSFSTENMGIWVPQAPPTLMCSSQMDRVIVHGETNIKGSSRSRLKDDNFTVPQISPPSNSKRARFLW
notes: Co-expressed with BBX32::GFP in soybean cotyledon protoplasts; also called FLAG::BBX39; not shown: FLAG tag
binding result (AtBBX32::GFP [3]): binds

B3: GmBBX39 fused to the Myc epitope (other, not shown: small tags and cut ends)
chain: B2 chain
binding result (AtBBX32::GFP [4]): binds
